From the supplement of paper PMC10567573

B1: SNAP91 (parent)
chain: FATASAAVPVSTSKPSSDLLDLQP

Variants of: B1
Assay: protein stability index of a GFP-peptide fusion (GPS, HEK-293T) (PSI 1-6); higher = more stable
Conditions: c terminus: a fixed tail appended
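Note: lentivirally expressed fusions sorted by FACS into six bins by GFP to DsRed ratio, PSI derived from sequencing read proportions per bin multiplied by bin number.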

In order of rising protein stability index:
1. FATWSAAVPVSTSKPSSDLLDLQP [A4W]  1.64
2. FVTASAAVPVSTSKPSSDLLDLQP [A2V]  1.65
3. FATASAAVPVFTSKPSSDLLDLQP [S11F]  1.7
4. FATASAAWPVSTSKPSSDLLDLQP [V8W]  1.88
5. FATFSAAVPVSTSKPSSDLLDLQP [A4F]  2.06
6. FITASAAVPVSTSKPSSDLLDLQP [A2I]  2.2
7. FATCSAAVPVSTSKPSSDLLDLQP [A4C]  2.66
8. FHTASAAVPVSTSKPSSDLLDLQP [A2H]  2.71
9. FATASAAVPVPTSKPSSDLLDLQP [S11P]  2.88
10. FATLSAAVPVSTSKPSSDLLDLQP [A4L]  2.89
11. FATASALVPVSTSKPSSDLLDLQP [A7L]  2.93
12. FWTASAAVPVSTSKPSSDLLDLQP [A2W]  2.96
13. FATASAAVPVHTSKPSSDLLDLQP [S11H]  3.01
14. FATASAAMPVSTSKPSSDLLDLQP [V8M]  3.02
15. FATASAAVPVLTSKPSSDLLDLQP [S11L]  3.03
16. FATISAAVPVSTSKPSSDLLDLQP [A4I]  3.04
17. FATASAVVPVSTSKPSSDLLDLQP [A7V]  3.05
18. FATASACVPVSTSKPSSDLLDLQP [A7C]  3.07
19. FCTASAAVPVSTSKPSSDLLDLQP [A2C]  3.09
20. FATASAAYPVSTSKPSSDLLDLQP [V8Y]  3.09
21. FATASAAFPVSTSKPSSDLLDLQP [V8F]  3.11
22. FATASAIVPVSTSKPSSDLLDLQP [A7I]  3.14
23. FATASAAVPVCTSKPSSDLLDLQP [S11C]  3.15
24. FATASAAVPVITSKPSSDLLDLQP [S11I]  3.15
25. FATRSAAVPVSTSKPSSDLLDLQP [A4R]  3.16
26. FTTASAAVPVSTSKPSSDLLDLQP [A2T]  3.18
27. FFTASAAVPVSTSKPSSDLLDLQP [A2F]  3.21
28. FATASATVPVSTSKPSSDLLDLQP [A7T]  3.24
29. FATASAHVPVSTSKPSSDLLDLQP [A7H]  3.24
30. FATASAAVPVQTSKPSSDLLDLQP [S11Q]  3.24
31. FATMSAAVPVSTSKPSSDLLDLQP [A4M]  3.31
32. FATASAALPVSTSKPSSDLLDLQP [V8L]  3.37
33. FATASAACPVSTSKPSSDLLDLQP [V8C]  3.38
34. FATASAAVPVATSKPSSDLLDLQP [S11A]  3.44
35. FRTASAAVPVSTSKPSSDLLDLQP [A2R]  3.46
36. FATASAAVPVMTSKPSSDLLDLQP [S11M]  3.5
37. FATASAKVPVSTSKPSSDLLDLQP [A7K]  3.54
38. FATASASVPVSTSKPSSDLLDLQP [A7S]  3.55
39. FATASAAAPVSTSKPSSDLLDLQP [V8A]  3.58
40. FATASAAVPVVTSKPSSDLLDLQP [S11V]  3.62
41. FATGSAAVPVSTSKPSSDLLDLQP [A4G]  3.63
42. FATASARVPVSTSKPSSDLLDLQP [A7R]  3.63
43. FATASAPVPVSTSKPSSDLLDLQP [A7P]  3.66
44. FATASAAVPVTTSKPSSDLLDLQP [S11T]  3.71
45. FATTSAAVPVSTSKPSSDLLDLQP [A4T]  3.72
46. FATASAGVPVSTSKPSSDLLDLQP [A7G]  3.72
47. FATYSAAVPVSTSKPSSDLLDLQP [A4Y]  3.73
48. FATASAAVPVGTSKPSSDLLDLQP [S11G]  3.73
49. FATASAAVPVNTSKPSSDLLDLQP [S11N]  3.76
50. FYTASAAVPVSTSKPSSDLLDLQP [A2Y]  3.77
51. FATASAAVPVRTSKPSSDLLDLQP [S11R]  3.77
52. FATASAARPVSTSKPSSDLLDLQP [V8R]  3.79
53. FATASAQVPVSTSKPSSDLLDLQP [A7Q]  3.79
54. FATKSAAVPVSTSKPSSDLLDLQP [A4K]  3.8
55. FATSSAAVPVSTSKPSSDLLDLQP [A4S]  3.8
56. YATASAAVPVSTSKPSSDLLDLQP [F1Y]  3.8
57. FATNSAAVPVSTSKPSSDLLDLQP [A4N]  3.81
58. FATASAAVPVKTSKPSSDLLDLQP [S11K]  3.84
59. FATASAASPVSTSKPSSDLLDLQP [V8S]  3.87
60. FATASAFVPVSTSKPSSDLLDLQP [A7F]  3.89
61. FATVSAAVPVSTSKPSSDLLDLQP [A4V]  3.9
62. FATQSAAVPVSTSKPSSDLLDLQP [A4Q]  3.9
63. FATASANVPVSTSKPSSDLLDLQP [A7N]  3.9
64. FATASAAIPVSTSKPSSDLLDLQP [V8I]  3.93
65. FKTASAAVPVSTSKPSSDLLDLQP [A2K]  3.99
66. FATASAAEPVSTSKPSSDLLDLQP [V8E]  3.99
67. FSTASAAVPVSTSKPSSDLLDLQP [A2S]  4.01
68. FATASAMVPVSTSKPSSDLLDLQP [A7M]  4.01
69. FATHSAAVPVSTSKPSSDLLDLQP [A4H]  4.06
70. FATASAAPPVSTSKPSSDLLDLQP [V8P]  4.07
71. FGTASAAVPVSTSKPSSDLLDLQP [A2G]  4.09
72. FQTASAAVPVSTSKPSSDLLDLQP [A2Q]  4.11
73. FATASAATPVSTSKPSSDLLDLQP [V8T]  4.12
74. FATASAAKPVSTSKPSSDLLDLQP [V8K]  4.13
75. FATPSAAVPVSTSKPSSDLLDLQP [A4P]  4.19
76. FATASAAQPVSTSKPSSDLLDLQP [V8Q]  4.2
77. FATASAAVPVETSKPSSDLLDLQP [S11E]  4.2
78. FPTASAAVPVSTSKPSSDLLDLQP [A2P]  4.27
79. FATASAAHPVSTSKPSSDLLDLQP [V8H]  4.27
80. FATASAANPVSTSKPSSDLLDLQP [V8N]  4.32
81. FATASAEVPVSTSKPSSDLLDLQP [A7E]  4.4
82. FATASAAVPVDTSKPSSDLLDLQP [S11D]  4.42
83. FETASAAVPVSTSKPSSDLLDLQP [A2E]  4.5
84. FATASADVPVSTSKPSSDLLDLQP [A7D]  4.5
85. FATASAAGPVSTSKPSSDLLDLQP [V8G]  4.52
86. VATASAAVPVSTSKPSSDLLDLQP [F1V]  4.54
87. FATESAAVPVSTSKPSSDLLDLQP [A4E]  4.57
88. FATASAADPVSTSKPSSDLLDLQP [V8D]  4.64
89. FATDSAAVPVSTSKPSSDLLDLQP [A4D]  4.72
90. TATASAAVPVSTSKPSSDLLDLQP [F1T]  4.91
91. SATASAAVPVSTSKPSSDLLDLQP [F1S]  4.99
92. RATASAAVPVSTSKPSSDLLDLQP [F1R]  4.99
93. FDTASAAVPVSTSKPSSDLLDLQP [A2D]  5
94. QATASAAVPVSTSKPSSDLLDLQP [F1Q]  5.06
